Assay results reported in US8975044B2, “Polynucleotides encoding for frizzled-binding agents and uses thereof” (OncoMed Pharmaceuticals, Inc., priority 2008, dated 2015).

Tests used:
FZD7 [1] = target: T1, FZD7 (Homo sapiens, UniProt O75084); test: Biacore affinity to recombinant Fzd Fc protein; type: binding; parameters: Fc (C); settings: IgG antibody; Fzd Fc immobilized on CM5 Biacore chip
Method: The KDs of 18R8 and 18R5 antibodies were determined using the Biacore 2000 system from Biacore Lifescience (GE Healthcare). Specifically, purified anti-Fzd7 antibodies were serially diluted in 2-fold increments from 100 to 0.78 nM in HBS-P (0.01 M HEPES pH 7.4, 0.15 M NaCl, 0.005% v/v Surfactant P20). Each dilution was tested against recombinant Fzd Fc proteins immobilized onto a CM5 Biacore chip. The association and dissociation rates were measured and KD values determined using the Biaevaluation software program (Table 5, below).

FZD7 [2] = target: T1, FZD7; test: FACS binding to FZD-transfected HEK293 cells; parameters: plasmid DNA expressing full-length FZD1, 2, 5, 7 or 8; expressed in transfected cells; host or cells: HEK293; settings: FACS MFI dose-response, full-length FZD in HEK293, 20 μg/ml 4-fold dilutions
Method: (§1) To measure antibody binding to FZD by flow cytometry HEK293 cells were co-transfected with FZD expression vectors and the transfection marker GFP. Twenty-four to forty-eight hours post-transfection, cells were collected in suspension and incubated on ice with anti-FZD antibodies (10 μg/ml unless otherwise indicated) or control IgG to detect background antibody binding. The cells were washed and primary antibodies detected with Fc domain-specific secondary antibodies conjugated to a fluorescent chromophore (e.g. phycoerythrin conjugated anti-human IgG). Labeled cells were then analyzed by flow cytometry to identify anti-FZD antibodies that specifically recognize cell surface expression of FZD protein. Monoclonal antibodies 18R5 and 18R8 recognized FZD on transfected cells. As shown in FIG. 1 and FIG. 2, both 18R8 and 18R5 bind to multiple FZD including FZD1, FZD2, FZD5, FZD7, and FZD8. […]
(§2) HEK293 cells were co-transfected with a plasmid DNA expressing full-length FZD1, 2, 5, 7 or 8 along with another plasmid expressing the reporter gene GFP used as a transfection marker. […] The cells were washed and bound anti-Fzd antibodies were detected with a secondary anti-human antibody conjugated to a fluorescent chromophore. Labeled cells were then detected and counted by FACS. The FACS data generated were expressed in Mean Fluorescence Intensity (MFI) units. […]

FZD1 = target: T2, FZD1 (Homo sapiens, UniProt Q9UP38); test: FACS binding to FZD-transfected HEK293 cells; settings: FACS MFI dose-response, full-length FZD in HEK293, 20 μg/ml 4-fold dilutions
T2 construct: plasmid DNA expressing full-length FZD1, 2, 5, 7 or 8; expressed in transfected cells; host or cells: HEK293
T2 sequence (Q9UP38 70-647): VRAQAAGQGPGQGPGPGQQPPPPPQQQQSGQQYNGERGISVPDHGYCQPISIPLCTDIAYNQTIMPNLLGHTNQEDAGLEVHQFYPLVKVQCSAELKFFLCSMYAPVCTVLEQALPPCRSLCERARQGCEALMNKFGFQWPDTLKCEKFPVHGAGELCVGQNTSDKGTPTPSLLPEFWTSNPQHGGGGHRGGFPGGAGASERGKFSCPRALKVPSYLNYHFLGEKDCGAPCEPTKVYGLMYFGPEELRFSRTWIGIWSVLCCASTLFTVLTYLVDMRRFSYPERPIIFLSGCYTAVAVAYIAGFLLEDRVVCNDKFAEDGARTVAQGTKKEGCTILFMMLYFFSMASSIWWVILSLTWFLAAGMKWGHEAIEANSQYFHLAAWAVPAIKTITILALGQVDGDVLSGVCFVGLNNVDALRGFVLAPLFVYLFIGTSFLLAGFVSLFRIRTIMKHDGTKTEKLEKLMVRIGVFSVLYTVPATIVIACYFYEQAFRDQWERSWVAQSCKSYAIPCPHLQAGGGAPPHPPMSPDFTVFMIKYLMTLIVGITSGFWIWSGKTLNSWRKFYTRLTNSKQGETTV
Method: as §1, §2

FZD2 = target: T3, FZD2 (Homo sapiens, UniProt Q14332); test: FACS binding to FZD-transfected HEK293 cells; settings: FACS MFI dose-response, full-length FZD in HEK293, 20 μg/ml 4-fold dilutions
T3 construct: plasmid DNA expressing full-length FZD1, 2, 5, 7 or 8; expressed in transfected cells; host or cells: HEK293
T3 sequence (Q14332 24-565): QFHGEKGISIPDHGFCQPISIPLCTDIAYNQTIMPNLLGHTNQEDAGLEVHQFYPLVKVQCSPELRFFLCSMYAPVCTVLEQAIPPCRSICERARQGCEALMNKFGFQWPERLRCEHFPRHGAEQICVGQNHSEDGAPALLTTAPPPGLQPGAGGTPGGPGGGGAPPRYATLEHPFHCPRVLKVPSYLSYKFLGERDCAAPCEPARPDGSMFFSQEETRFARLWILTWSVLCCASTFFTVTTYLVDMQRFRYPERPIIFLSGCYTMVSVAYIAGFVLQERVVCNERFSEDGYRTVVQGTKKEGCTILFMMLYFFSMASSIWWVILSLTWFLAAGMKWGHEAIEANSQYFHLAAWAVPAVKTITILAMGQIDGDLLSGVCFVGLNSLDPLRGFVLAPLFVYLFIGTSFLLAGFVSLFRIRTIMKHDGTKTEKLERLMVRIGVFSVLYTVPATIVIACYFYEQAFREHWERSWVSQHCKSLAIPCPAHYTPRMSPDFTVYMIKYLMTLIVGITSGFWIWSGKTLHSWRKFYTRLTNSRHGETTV
Method: as §1, §2

OMP-Pn4 tumors = test: Limiting dilution assay of cancer stem cell frequency in treated OMP-Pn4 tumors; type: in vivo, NOD/SCID mice; settings: tumors after 41 days treatment; 30-810 cells re-injected, 75 days; L-Calc
Method: Control and treated tumors from the OMP-Pn4 xenograft study described above (Example 7) were harvested at the end of 41 days treatment. The tumors were processed and dissociated into single cells. Tumor cells were then incubated with biotinylated mouse antibodies (α-mouse CD45-biotin 1:200 dilution and rat α-mouse H2 Kd-biotin 1:100 dilution, BioLegend, San Diego, Calif.) on ice for 30 min followed by addition of streptavidin-labeled magnetic beads (Invitrogen, Carlsbad, Calif.) to remove mouse cells. The remaining human cells in the suspension were collected, counted and diluted to appropriate cell doses (30, 90, 270 and 810 cells), mixed in the mixture of 1:1 (v/v) FACS buffer and Matrigel and injected subcutaneously in NOD/SCID mice (10 mice per cell dose per treatment group). Each dot in FIG. 40 represents the tumor volume of an individual mouse. The percentage of mice with detectable tumors was determined in all groups injected with anti-FZD antibody treated tumor cells and compared to the percentage of mice with detectable tumors in the controls. For example, the number of mice injected with 810 control-treated tumor cells that have detectable tumors was determined and compared to the number of mice injected with 810 FZD-antibody treated tumor cells that have detectable tumors. […]

OMP-C28 tumors = test: Flow cytometry of ESA and CD44 on cells of treated OMP-C28 tumors; type: in vivo, NOD/SCID mice; settings: tumors harvested day 48; control antibody 64%
Method: Control and treated tumors from the OMP-C28 xenograft study described above (Example 7) were harvested at the end of the study (day 48). The tumors were processed and dissociated into single cells. Tumor cells were then incubated with biotinylated mouse antibodies (α-mouse CD45-biotin 1:200 dilution and rat α-mouse H2 Kd-biotin 1:100 dilution, BioLegend, San Diego, Calif.) on ice for 30 min followed by addition of streptavidin-labeled magnetic beads (Invitrogen, Carlsbad, Calif.) to remove mouse cells with the aid of a magnet.
For analysis of cell surface markers, the single tumor cell suspension was stained with anti-ESA (Biomeda) and anti-CD44 (BD Biosciences) antibodies which were directly conjugated to fluorochromes. Dead cells were excluded by using the viability dye DAPI. Flow cytometry was performed using a FACS Aria (Becton Dickinson). Side scatter and forward scatter profiles were used to eliminate cell clumps.

18R5: human anti-FZD antibody; VH SEQ ID NO:10 (as 18R8), VL SEQ ID NO:14; binds FZD1, 2, 5, 7, 8
Kd (FZD7 [1]): 1.8 nM | EC50 (FZD7 [2]): 0.58 nM | EC50 (FZD1): 0.41 nM | EC50 (FZD2): 0.62 nM

Nc1ccn([C@@H]2O[C@H](CO)[C@@H](O)C2(F)F)c(=O)n1 [gemcitabine, reference compound]
cancer stem cell frequency (OMP-Pn4 tumors): had no effect

CCc1c2c(nc3ccc(OC(=O)N4CCC(N5CCCCC5)CC4)cc13)-c1cc3c(c(=O)n1C2)COC(=O)[C@]3(O)CC [irinotecan, reference compound]
bulk tumor population expressing both ESA and CD44 at high levels (double positive) (OMP-C28 tumors): 55%
